B1: 7 (protein, listed as Legionella pneumophila)
chain: MAIVDFETHFITEACIDYLTQRQEVPKLVPELNGAYTMCFTPDVSLFHTSALMEELLSLNEQRLAIMDQAGVTIQVLSLTTINGIDSCPGDENKSTALAREVNDQLYSAIQRHPERFKGFASISPYDVKEGVKELERAISQLGFVGWLTHSNFGEDNYLDDKTYWPLLEAAEGLNIPIYLHPNVPIMREFGKYGFALGGSALGFEFDTALCLMRMILGGVFDAFPKLKIMLGHLGETMPFLMERLDHLYRIPDLKAYRPSIQRIPSEVLRQNVYITTSGRFFVPALRYVLEVMGEDRVLFASDYPMESLLDATRFIQDSDLSNQTKQKIFSINAKNLNLI
B2: 102 (protein, listed as Lactobacillus plantarum)
chain: MATKTFKTLDDFLGTHFIYTYDNGWEYEWYAKNDHTVDYRIHGGMVAGRWVTDQKADIVMLTEGIYKISWTEPTGTDVALDFMPNEKKLHGTIFFPKWVEEHPEITVTYQNEHIDLMEQSREKYATYPKLVVPEFANITYMGDAGQNNEDVISEAPYKEMPNDIRNGKYFDQNYHRLNK
B3: 101 (protein, listed as Aquifex aeolicus)
chain: MAQKIALCITGASGVIYGIKLLQVLEELDFSVDLVISRNAKVVLKEEHSLTFEEVLKGLKNVRIHEENDFTSPLASGSRLVHYRGVYVVPCSTNTLSCIANGINKNLIHRVGEVALKERVPLVLLVREAPYNEIHLENMLKITRMGGVVVPASPAFYHKPQSIDDMINFVVGKLLDVLRIEHNLYKRWRG
B4: 103 (protein)
chain: MAMEIPTEEIKFLKKEDVQNIDLNGMSKKERYEIWRRIPKVELHCHLDLTFSAEFFLKWARKYNLQPNMSDDEILDHYLFTKEGKSLAEFIRKAISVSDLYRDYDFIEDLAKWAVIEKYKEGVVLMEFRYSPTFVSSSYGLDVELIHKAFIKGIKNATELLNNKIHVALICISDTGHAAASIKHSGDFAIKHKHDFVGFDHGGREIDLKDHKDVYHSVRDHGLHLTVHAGEDATLPNLNTLYTAINILNVERIGHGIRVSESDELIELVKKKDILLEVCPISNLLLNNVKSMDTHPIRKLYDAGVKVSVNSDDPGMFLSNINDNYEKLYIHLNFTLEEFMIMNNWAFEKSFVSDDVKSELKALYF
modifications: Plasmodium yoelii yoelii
B5: 99 (protein, listed as Ralstonia solanacearum)
chain: MAIIDCHGHFTTAPTALEDWRKRQIANLATPALGPSPDDLKISDDALTEAIRANQLRLMQARGSDLTIFSPRASFMAHHIGDFHTSATWAAICNALCHRVSQLFPDHFVGAAMLPQSPGVDIRTCIPELARCIVDYGFVGVNLNPDPSGGHWTSPPLSDPYWFPLYEKLVEYDVPAMIHVSTSCNACFHTTGAHYLNADTTAFMQVLTSDLFRRFPTLKFVIPHGGGAVPYHWGRFRGLAQELKTPPLQEHLLHNVFFDTCVYHQPGIDLLTRVIPVDNILFASEMIGAVRGIDPETGHPFDDTRRYIDQAHTLSAEDRHKIYEGNARRVYPRLDARLKARGR

The values that follow come from patent publication US20160053277A1, “Compositions Having Dicamba Decarboxylase Activity and Methods of Use” (PIONEER HI-BRED INTERNATIONAL, INC., priority 2013, published 2016).

One data set is described as follows: Saturation mutagenesis of SEQ ID NO:109: dicamba decarboxylation activity of point mutants (carbon dioxide released). Conditions: decarboxylation activity (carbon dioxide released) of point mutant compared with unmutated backbone protein; backbone SEQ ID NO: 109.
Turning to B1, the “Fold Activity” value worked out at 1.3.
Still for that read-out and setting: the value for B2 was 2.6; that for B3 was 1.8.
Take B4: the “Fold Activity” value is given as 1.7.
Same read-out and setting: the value for B5 was 1.7.

The next data set in a line: 14C assay with IPTG-induced recombinant E. coli cells: 14CO2 captured from [14C]-carboxyl-labeled dicamba. Conditions: dicamba decarboxylation activity of the protein of the given SEQ ID NO; High / Low / No.
Take B1: the “Enzymatic Detection level” value is “No”.
With B2, the “Enzymatic Detection level” value is on record as “No”.
The same measure, in the same setting: the value for B3 was “No”.
Same read-out and setting: the value for B4 was “No”; that for B5 was “No”.

Staying with this data set, now noted: induced recombinant E. coli cells, [14C]-carboxyl-labeled dicamba, 14CO2 capture.
As to B1, the “Dicamba Decarboxylase Activity” value is on record as “No”.
On the same count and under the same terms, the value for B2 was “No”; that for B3 was “No”; that for B4 was “No”.
On the same count and under the same terms, with B5 the entry was “No”.
